How the values were obtained:
[1] = target: OT-001661 (MH Linker; CD40L; stop) (human) (UniProt P29965); test: cell-based or functional assay
[2] = target: OT-001668 (Linker (MH); CD40L (aa 1-261 of WT, (S110-G116) del); stop) (human) (UniProt P29965); test: cell-based or functional assay
[3] = target: OT-001669 (Linker (MH); CD40L (aa 14-261 of WT); stop) (human) (UniProt P29965); test: cell-based or functional assay
[4] = system: T cells (CD4 and CD8 positive); test: Bazedoxifene dose response, CD40L MFI in CD4 and CD8 positive T cells (day 4, freeze/thaw, restimulation); format: cell-based
Procedure: Dose response with Bazedoxifene in T cells were conducted for OT-001966, OT-001967, OT-001666. Expression of CD40L was measured at (a) day 4 after transduction, (b) after freezing and thawing the cells or (c) after freezing and thawing the cells followed by restimulation with CD3/CD28 beads. The CD40L MFI (median fluorescence intensity) within CD4 and CD8 positive subpopulations is shown in Table 34 and Table 35 respectively.

Jurkat cells = test: Linker length, ER regulated CD40L, % CD40L positive Jurkat cells; format: cell-based
Procedure: Jurkat cells were lentivirally transduced and 24 hours after transduction were treated with DMSO or 1 μM Bazedoxifene for another 24 hours and analyzed by flow cytometry for surface expression of CD40L. […] In Table 33, SR indicates stabilization ratio.

T cells (CD4+ and CD8+) = test: Regulation of CD40L in T cells by different drug responsive domains; format: cell-based
HEK293T cells = test: Linker length, ER regulated CD40L surface expression, transfected HEK293T cells; format: cell-based, human; conditions: 1 μM Bazedoxifene 24 hours
Procedure: To explore the effect of linker length in the DD mediated regulation of CD40L, constructs with varying linker lengths were generated. OT-001966, OT-001965, OT-001967, OT-001666 constructs were generated and are presented here in decreasing linker length order. HEK293T cells were transiently transfected with these constructs and treated with 1 μM Bazedoxifene for 24 hours. Median fluorescence intensity, an indicator of surface expression of CD40L, was analyzed by flow cytometry.

recombinant human CD40-Fc receptor (from UniProt P25942 21-193) (Fc fusion)
CD40L levels in supernatant (shedding, ELISA) of Jurkat cells cultured 6 hours with 1.25 µg/ml hCD40-Fc; untreated 1382.06 [1]: 3600 | CD40L levels in supernatant (shedding, ELISA) of Jurkat cells cultured 6 hours with 1.25 µg/ml hCD40-Fc; untreated 10 [2]: 10 | CD40L levels in supernatant (shedding, ELISA) of Jurkat cells cultured 6 hours with 1.25 µg/ml hCD40-Fc; untreated 2137.69 [3]: 8440

B1: OT-001966: ER regulated CD40L construct, longest linker (protein)
chain: MSLALSLTADQMVSALLDAEPPILYSEYDPTRPFSEASMMGLLTNLADRELVHMINWAKRVPGFVDLTLHDQVHLLECAWMEILMIGLVWRSMEHPGKLLFAPNLLLDRDQGKCVEGGVEIFDMLLATSSRFRMMNLQGEEFVCLKSIILLNSGVYTFLSSTLKSLEEKDHIHRVLDKITDTLIHLMAKAGLTLQQQHQRLAQLLLILSHIRHMSNKRMEHLYSMKCKNVVPLSDLLLEMLDAHRLGGSGGGSGGGSGMIETYNQTSPRSAATGLPISMKIFMYLLTVFLITQMIGSALFAVYLHRRLDKIEDERNLHEDFVFMKTIQRCNTGERSLSLLNCEEIKSQFEGFVKDIMLNKEETKKENSFEMQKGDQNPQIAAHVISEASSKTTSVLQWAEKGYYTMSNNLVTLENGKQLTVKRQGLYYIYAQVTFCSNREASSQAPFIASLCLKSPGRFERILLRAANTHSSAKPCGQQSIHLGGVFELQPGASVFVNVTDPSQVSHGTGFTSFGLLKL
CD40L expression (MFI) ([4]; CD4+ cells, Day 4, Bazedoxifene 0.01 nM): 415 | CD40L expression (MFI) ([4]; CD4+ cells, Day 4, Bazedoxifene 0.1 nM): 499 | CD40L expression (MFI) ([4]; CD4+ cells, Day 4, Bazedoxifene 1 nM): 545 | CD40L expression (MFI) ([4]; CD4+ cells, Day 4, Bazedoxifene 10 nM): 616 | CD40L expression (MFI) ([4]; CD4+ cells, Day 4, Bazedoxifene 100 nM): 1028 | CD40L expression (MFI) ([4]; CD4+ cells, Day 4, Bazedoxifene 1000 nM): 1551 | CD40L expression (MFI) ([4]; CD4+ cells, Day 4, Bazedoxifene 10000 nM): 1095 | CD40L expression (MFI) ([4]; CD4+ cells, Post Thaw, Bazedoxifene 0.01 nM): 183 | CD40L expression (MFI) ([4]; CD4+ cells, Post Thaw, Bazedoxifene 0.1 nM): 185 | CD40L expression (MFI) ([4]; CD4+ cells, Post Thaw, Bazedoxifene 1 nM): 193 | CD40L expression (MFI) ([4]; CD4+ cells, Post Thaw, Bazedoxifene 10 nM): 213 | CD40L expression (MFI) ([4]; CD4+ cells, Post Thaw, Bazedoxifene 100 nM): 258 | CD40L expression (MFI) ([4]; CD4+ cells, Post Thaw, Bazedoxifene 1000 nM): 292 | CD40L expression (MFI) ([4]; CD4+ cells, Post Thaw, Bazedoxifene 10000 nM): 577 | CD40L expression (MFI) ([4]; CD4+ cells, Restim, Bazedoxifene 0.01 nM): 340 | CD40L expression (MFI) ([4]; CD4+ cells, Restim, Bazedoxifene 0.1 nM): 340 | CD40L expression (MFI) ([4]; CD4+ cells, Restim, Bazedoxifene 1 nM): 364 | CD40L expression (MFI) ([4]; CD4+ cells, Restim, Bazedoxifene 10 nM): 472 | CD40L expression (MFI) ([4]; CD4+ cells, Restim, Bazedoxifene 100 nM): 561 | CD40L expression (MFI) ([4]; CD4+ cells, Restim, Bazedoxifene 1000 nM): 741 | CD40L expression (MFI) ([4]; CD4+ cells, Restim, Bazedoxifene 10000 nM): 447 | CD40L expression (MFI) ([4]; CD8+ cells, Day 4, Bazedoxifene 0.01 nM): 168 | CD40L expression (MFI) ([4]; CD8+ cells, Day 4, Bazedoxifene 0.1 nM): 176 | CD40L expression (MFI) ([4]; CD8+ cells, Day 4, Bazedoxifene 1 nM): 190 | CD40L expression (MFI) ([4]; CD8+ cells, Day 4, Bazedoxifene 10 nM): 212 | CD40L expression (MFI) ([4]; CD8+ cells, Day 4, Bazedoxifene 100 nM): 442 | CD40L expression (MFI) ([4]; CD8+ cells, Day 4, Bazedoxifene 1000 nM): 669 | CD40L expression (MFI) ([4]; CD8+ cells, Day 4, Bazedoxifene 10000 nM): 438 | CD40L expression (MFI) ([4]; CD8+ cells, Post Thaw, Bazedoxifene 0.01 nM): 113 | CD40L expression (MFI) ([4]; CD8+ cells, Post Thaw, Bazedoxifene 0.1 nM): 117 | CD40L expression (MFI) ([4]; CD8+ cells, Post Thaw, Bazedoxifene 1 nM): 121 | CD40L expression (MFI) ([4]; CD8+ cells, Post Thaw, Bazedoxifene 10 nM): 148 | CD40L expression (MFI) ([4]; CD8+ cells, Post Thaw, Bazedoxifene 100 nM): 204 | CD40L expression (MFI) ([4]; CD8+ cells, Post Thaw, Bazedoxifene 1000 nM): 230 | CD40L expression (MFI) ([4]; CD8+ cells, Post Thaw, Bazedoxifene 10000 nM): 375 | CD40L expression (MFI) ([4]; CD8+ cells, Restim, Bazedoxifene 0.01 nM): 340 | CD40L expression (MFI) ([4]; CD8+ cells, Restim, Bazedoxifene 0.1 nM): 340 | CD40L expression (MFI) ([4]; CD8+ cells, Restim, Bazedoxifene 1 nM): 364 | CD40L expression (MFI) ([4]; CD8+ cells, Restim, Bazedoxifene 10 nM): 472 | CD40L expression (MFI) ([4]; CD8+ cells, Restim, Bazedoxifene 100 nM): 561 | CD40L expression (MFI) ([4]; CD8+ cells, Restim, Bazedoxifene 1000 nM): 741 | CD40L expression (MFI) ([4]; CD8+ cells, Restim, Bazedoxifene 10000 nM): 447 | CD40L expression, ranking of constructs ([4]; CD8 positive cells, freeze/thaw followed by restimulation with CD3/CD28 beads): highest ER regulated CD40L expression | Percent of Jurkat cells expressing CD40L (Jurkat cells; 1 μM Bazedoxifene): 46% | SR (Jurkat cells; 1 μM Bazedoxifene versus DMSO, % CD40L positive Jurkat cells): 15.3 | Percent of Jurkat cells expressing CD40L (Jurkat cells; DMSO): 3% | percentage of cells with high CD40L surface expression, ranking of constructs (Jurkat cells; Jurkat cells, 1 μM Bazedoxifene 24 hours): highest percentage of cells with high CD40L surface expression | CD40L positive (T cells (CD4+ and CD8+); All Cells, 1 uM Baz): 58.1% | MFI (T cells (CD4+ and CD8+); All Cells, 1 uM Baz): 490 | CD40L positive (T cells (CD4+ and CD8+); All Cells, DMSO): 14% | MFI (T cells (CD4+ and CD8+); All Cells, DMSO): 174 | CD40L positive (T cells (CD4+ and CD8+); CD4+, 1 uM Baz): 62.8% | MFI (T cells (CD4+ and CD8+); CD4+, 1 uM Baz): 543 | CD40L positive (T cells (CD4+ and CD8+); CD4+, DMSO): 17% | MFI (T cells (CD4+ and CD8+); CD4+, DMSO): 197 | CD40L positive (T cells (CD4+ and CD8+); CD8+, 1 uM Baz): 42.3% | MFI (T cells (CD4+ and CD8+); CD8+, 1 uM Baz): 339 | CD40L positive (T cells (CD4+ and CD8+); CD8+, DMSO): 2.2% | MFI (T cells (CD4+ and CD8+); CD8+, DMSO): 95.6 | percentage of cells with high CD40L surface expression, ranking of constructs (HEK293T cells): highest percentage of cells with high CD40L surface expression

Source: patent publication US20220175781A1, “CD40L COMPOSITIONS AND METHODS FOR TUNABLE REGULATION” (Obsidian Therapeutics, Inc., priority 2019, published 2022)
